The target of experiment [1] is thermolysin-cleaved SUDV GP (GP(S)THL) (Sudan virus (SUDV)) (UniProt Q7T9D9). The experiment is described as follows: BLI; Sudan GPTHL on sensor, NPC1-dC, then NPC1-dC (self-competition). (Biolayer interferometry detects binding as a change in optical thickness at a sensor tip.)
Experiment [2] shares this target. The experiment is described as above. This is another data set of the same source.

Like-named read-outs stand apart in the source and are kept apart here.

Sequence of Niemann-Pick disease, type C1-domain C (NPC1-dC) (O15118 373-620 limits assumed): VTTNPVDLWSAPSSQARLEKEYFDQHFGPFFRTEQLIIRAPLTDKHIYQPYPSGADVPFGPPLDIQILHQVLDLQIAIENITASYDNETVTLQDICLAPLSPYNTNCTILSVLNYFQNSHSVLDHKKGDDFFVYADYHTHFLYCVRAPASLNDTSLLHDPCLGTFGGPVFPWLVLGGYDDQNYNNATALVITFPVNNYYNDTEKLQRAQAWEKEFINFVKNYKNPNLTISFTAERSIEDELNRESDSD

For the substance “Niemann-Pick disease, type C1-domain C (NPC1-dC) (from UniProt O15118 373-620) (receptor)”, the values for the percent blocking of NPC1-dC binding in experiment [1] and in experiment [2] were 72% and 79%, respectively.

These data come from patent US20260209316A1.
